Experimental data published in publication PMC11904948, “Peptide‐Drug Conjugate for Therapeutic Reprogramming of Tumor‐Associated Macrophages in Breast Cancer” (Advanced Science, 2025).

How the values were obtained:
Assay type in all cases: cell-based
[1] = tested on: IL‐4‐stimulated primary human macrophages; test: In vitro photodynamic therapy, MTT viability, IL-4-stimulated macrophages; settings: 30 µM 1 h 37 °C, washed
From the text: (§1) We next coupled MACTIDE to the photosensitizer Verteporfin, intending to deplete CD206^+ TAM using photodynamic therapy (PDT). To this end, carboxy‐Verteporfin was coupled to the N‐terminus of MACTIDE, a construct referred to as “MACTIDE‐V” (Figure 5A). We performed in vitro photodynamic therapy with MACTIDE‐V on primary human macrophages stimulated with IL‐4 or LPS + IFNγ.
(§2) Figure 5 In vitro and in vivo photodynamic therapy with MACTIDE‐V. A) Structure of MACTIDE‐V. B) MACTIDE‐V, CtrlPep‐V, and DOX were incubated with primary human macrophages (obtained from monocytes derived from human blood buffy coat) at 30 µM for 1 h at 37 °C, followed by 2 washes with media. Then, the groups shown in pink were irradiated with 10 J cm^−2 (irradiance: 170 mW cm^−2, spot diameter: 0.5 cm). […] Peptide‐V conjugates were administered i.p. at a dose of 30 nmol (1 mg Kg^−1 in Verteporfin). For the irradiated groups, 4 h after administration of conjugates or PBS, the mice were irradiated with 100 J cm^−2; shown is primary tumor volume progression during treatment. Gray arrows indicate injection days. D) Bodyweight during the treatment as % of the initial one. E) Representative mIHC images of PBS, CtrlPep‐V, and MACTIDE‐V‐treated tumors, 20X magnification, scale bar = 100 µm, white triangles point to Foxp3^+ cells. F) CD8^+ T cells, CD4^+ T cells, and Treg density, n = 6 mice/group, with every dot representing the mean cell density of each tumor obtained from 20 images. G) CD8^+ T cells density in CK8^+‐dense tumor regions. n = 5 mice/group, with every dot representing the mean cell density of each tumor obtained from 20 images. Median ± interquartile range. One‐way ANOVA with multiple comparisons, ^* p ≤ 0.05, ^** p ≤ 0.01.
(§3) Human peripheral mononuclear cells (PBMCs) were purified from human blood buffy coats following the protocol described previously.^[ [24] ^] […] Crystal formation was monitored every 20–30 min to not oversaturate the absorbance values.

[2] = tested on: mouse bone marrow‐derived macrophages (BMDM); test: Phagocytosis of live 4T1-GFP cancer cells by BMDM; settings: Balb/c BMDM, 10 µM 4 h, washed, 48 h, then 2 h with 4T1-GFP cells, n = 3
Method: We then analyzed if MACTIDE‐V affected the phagocytic activity of BMDM in vitro.
For the live 4T1‐GFP phagocytosis assay, 4T1‐GFP cells were cultured in RPMI1640 supplemented with 10% (v/v) FBS and 1% penicillin/streptomycin at 37 °C, 5% CO2. BMDM were seeded on Ibidi plates (Ibidi, cat# 80821) and at day 5 were treated with MACTIDE and conjugates as previously described (10 µM during 4h, followed by washing with media). Then, 48h later, the BMDM were incubated for 2 h with 2×10^5 4T1‐GFP cells (the area of the wells is 1 cm^2). Then, the supernatant was removed, and the wells were washed with media and then with PBS. Then, the cells were fixed with ice‐cold acetone for 10 min. Fixed cells were then washed with PBS, permeabilized with PBS‐0.2% Triton for 10 min and washed with PBS‐T (PBS+0.05% Tween‐20 (v/v)), and then incubated with blocking buffer (5% BSA (w/v), 5% FBS (v/v) in PBS‐T) for 1 h at room temperature. […] The mean GFP signal intensity was quantified from the images using ImageJ and normalized to the amount of DAPI^+ nuclei.
Figure S4. […] Scale bars= 50µm.The mean GFP signal intensity was quantified from the images using ImageJ and normalized to the amount of DAPI^+ nuclei (right panel). […]

[3] = tested on: LPS + IFNγ‐stimulated primary human macrophages; test: In vitro photodynamic therapy, MTT viability, LPS + IFNγ-stimulated macrophages; settings: 30 µM 1 h 37 °C, washed
From the text: as §1, §2, §3

[4] = with or without 10 J cm^−2, 48 h
[5] = irradiated 10 J cm^−2 (689 nm), 48 h, n = 6

Substance	toxicity with and without irradiation [1, 4]	phagocytosis of live 4T1 cancer cells labeled with GFP [2]	toxicity with and without irradiation [3, 4]	macrophages depleted, irradiated [1, 5] [%]	toxicity, non‐irradiated ([1]; no irradiation, 48 h, n = 6)	macrophages depleted, irradiated [3, 5] [%]	toxicity, non‐irradiated ([3]; no irradiation, 48 h, n = 6)
Vert‐Ahx‐AKPCGS‐OH [CtrlPep‐V, reference compound]	no toxicity	negligible phagocytosis	no toxicity	–	–	–	–
Vert‐Ahx‐G(CTKSIPPIC)SPGAK‐OH (disulfide) [MACTIDE‐V]	–	cancer cell phagocytosis only in the MACTIDE‐V treated BMDM	–	80	no toxicity	40	no toxicity
